# Experimental data as given in paper PMC3074120 (Nucleic Acids Research, 2010).
# B1: NHA-Δ5 (GW182 fragment Δ5, amino acids 1670-1962) (domain or fragment)
# chain: TSAWSSIRASNYNVPLSSTAQSTSARNSDSKLTWSPGSVTNTSLAHELWKVPLPPKNITAPSRPPPGLTGQKPPLSTWDNSPLRIGGGWGNSDARYTPGSSWGESSSGRITNWLVLKNLTPQIDGSTLRTLCMQHGPLITFHLNLPHGNALVRYSSKEEVVKAQKSLHMCVLGNTTILAEFASEEEISRFFAQSQSLTPSPGWQSLGSSQSRLGSLDCSHSFSSRTDLNHWNGAGLSGTNCGDLHGTSLWGTPHYSTSLWGPPSSSDPRGISSPSPINAFLSVDHLGGGGESM
# B2: NHA-Δ12a (GW182 fragment Δ12a, amino acids 896-1045) (domain or fragment)
# chain: FTWGNNINPNNSSGWDESSKPTPSQGWGDPPKSNQSLGWGDSSKPVSSPDWNKQQDIVGSWGIPPATGKPPGTGWLGGPIPAPAKEEEPTGWEEPSPESIRRKMEIDDGTSAWGDPSKYNYKNVNMWNKNVPNGNSRSDQQAQVHQLLTP
# B3: NHA-Δ12 (GW182 fragment Δ12, amino acids 896-1219) (domain or fragment)
# chain: FTWGNNINPNNSSGWDESSKPTPSQGWGDPPKSNQSLGWGDSSKPVSSPDWNKQQDIVGSWGIPPATGKPPGTGWLGGPIPAPAKEEEPTGWEEPSPESIRRKMEIDDGTSAWGDPSKYNYKNVNMWNKNVPNGNSRSDQQAQVHQLLTPASAISNKEASSGSGWGEPWGEPSTPATTVDNGTSAWGKPIDSGPSWGEPIAAASSTSTWGSSSVGPQALSKSGPKSMQDGWCGDDMPLPGNRPTGWEEEEDVEIGMWNSNSSQELNSSLNWPPYTKKMSSKGLSGKKRRRERGMMKGGNKQEEAWINPFVKQFSNISFSRDSPE
# B4: NHA-Δ10 (GW182 fragment Δ10, amino acids 655-1343) (domain or fragment)
# chain: QTNEQSSVWAKTGGTVESDGSTESTGRLEEKGTGESQSRDRRKIDQHTLLQSIVNRTDLDPRVLSNSGWGQTPIKQNTAWDTETSPRGERKTDNGTEAWGSSATQTFNSGACIDKTSPNGNDTSSVSGWGDPKPALRWGDSKGSNCQGGWEDDSAATGMVKSNQWGNCKEEKAAWNDSQKNKQGWGDGQKSSQGWSVSASDNWGETSRNNHWGEANKKSSSGGSDSDRSVSGWNELGKTSSFTWGNNINPNNSSGWDESSKPTPSQGWGDPPKSNQSLGWGDSSKPVSSPDWNKQQDIVGSWGIPPATGKPPGTGWLGGPIPAPAKEEEPTGWEEPSPESIRRKMEIDDGTSAWGDPSKYNYKNVNMWNKNVPNGNSRSDQQAQVHQLLTPASAISNKEASSGSGWGEPWGEPSTPATTVDNGTSAWGKPIDSGPSWGEPIAAASSTSTWGSSSVGPQALSKSGPKSMQDGWCGDDMPLPGNRPTGWEEEEDVEIGMWNSNSSQELNSSLNWPPYTKKMSSKGLSGKKRRRERGMMKGGNKQEEAWINPFVKQFSNISFSRDSPEENVQSNKMDLSGGMLQDKRMEIDKHSLNIGDYNRTVGKGPGSRPQISKESSMERNPYFDKDGIVADESQNMQFMSSQSMKLPPSNSALPNQALGSIAGLGMQNLNSVRQNGNPSMFGVGNTAAQ
# Biological target: GST-PIWI (PIWI domain of Ago2) (human, UniProt Q9UKV8 517-818)
# Sequence (Q9UKV8 517-818): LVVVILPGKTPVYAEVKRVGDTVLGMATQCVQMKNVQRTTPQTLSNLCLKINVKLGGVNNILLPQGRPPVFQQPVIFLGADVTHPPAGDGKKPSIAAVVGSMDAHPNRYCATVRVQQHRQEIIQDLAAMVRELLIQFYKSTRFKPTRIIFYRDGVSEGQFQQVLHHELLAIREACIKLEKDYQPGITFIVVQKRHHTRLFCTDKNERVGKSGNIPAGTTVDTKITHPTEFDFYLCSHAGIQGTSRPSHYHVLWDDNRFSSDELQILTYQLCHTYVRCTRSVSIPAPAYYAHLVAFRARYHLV
# Assay: pull-down
row,Binder,percent pull-down (of input) [%]
1,B1,4.2
2,B2,0.2
3,B3,18
4,B4,≤ 85
